Measured values: the supplement of paper PMC10899765

Legend:
Details in all cases: 20 nM; 72 h
[1] = test system: MCF10A; assay: percent viability (nuclei count relative to siNT); higher = more viable cells
Procedure: (§1)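 After 72 h, cells were fixed and stained with Hoechst and anti-fibrillarin, and nucleoli per nucleus were counted with CellProfiler. Values are plate-adjusted percent effect for the one-nucleolus and 5+ nucleoli phenotypes, normalised to siNT (0%) and to the positive controls siNOL11 or siKIF11 (100%), as the mean of biological triplicates. Percent viability is the nuclei count relative to siNT.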

[2] = test system: MCF10A; assay: 5+ nucleoli phenotype percent effect (relative to siNT 0% and siKIF11 100%); higher = more cells with five or more nucleoli
Procedure: as §1

[3] = test system: MCF10A; assay: one-nucleolus phenotype percent effect (relative to siNT 0% and siNOL11 100%); higher = more cells with one nucleolus (ribosome biogenesis inhibition)
Procedure: as §1

## GCAGGACAGGCAGAAGUGGAU [hsa-miR-4436a]
[1]
  percent viability: 105%
[2]
  5+ nucleoli phenotype percent effect: 32.1%
[3]
  one-nucleolus phenotype percent effect: -24.9%

## GCAGGCACAGACAGCCCUGGC [hsa-miR-4269]
[1]
  percent viability: 30.1%
[2]
  5+ nucleoli phenotype percent effect: -29%
[3]
  one-nucleolus phenotype percent effect: 43.1%

## GCAGGGACAGCAAAGGGGUGC [hsa-miR-211-3p]
[1]
  percent viability: 38.3%
[2]
  5+ nucleoli phenotype percent effect: -20.9%
[3]
  one-nucleolus phenotype percent effect: 9.24%

## GCAGGUGCUCACUUGUCCUCCU [hsa-miR-764]
[1]
  percent viability: 23.9%
[2]
  5+ nucleoli phenotype percent effect: -23.5%
[3]
  one-nucleolus phenotype percent effect: 49.3%

## GCAGUAGUGUAGAGAUUGGUUU [hsa-miR-3129-5p]
[1]
  percent viability: 40.7%
[2]
  5+ nucleoli phenotype percent effect: 12.6%
[3]
  one-nucleolus phenotype percent effect: -15%

## GCAGUCCAUGGGCAUAUACAC [hsa-miR-455-3p]
[1]
  percent viability: 112%
[2]
  5+ nucleoli phenotype percent effect: 26.8%
[3]
  one-nucleolus phenotype percent effect: -12.4%

## GCAGUGGCUCUGAAAUGAACUC [hsa-miR-5693]
[1]
  percent viability: 33.8%
[2]
  5+ nucleoli phenotype percent effect: -12.8%
[3]
  one-nucleolus phenotype percent effect: -3.8%

## GCAGUUCUGAGCACAGUACAC [hsa-miR-4277]
[1]
  percent viability: 210%
[2]
  5+ nucleoli phenotype percent effect: 31.2%
[3]
  one-nucleolus phenotype percent effect: -25%

## GCAUGUGAUGAAGCAAAUCAGU [hsa-miR-3607-5p]
[1]
  percent viability: 52.8%
[2]
  5+ nucleoli phenotype percent effect: -8.33%
[3]
  one-nucleolus phenotype percent effect: -2.14%

## GCAUUGUGCAGGGCUAUCA [hsa-miR-4289]
[1]
  percent viability: 35%
[2]
  5+ nucleoli phenotype percent effect: 7.06%
[3]
  one-nucleolus phenotype percent effect: -8.06%

## GCCCAAAGGUGAAUUUUUUGGG [hsa-miR-186-3p]
[1]
  percent viability: 176%
[2]
  5+ nucleoli phenotype percent effect: 26.4%
[3]
  one-nucleolus phenotype percent effect: -20.2%

## GCCCAGGACUUUGUGCGGGGUG [hsa-miR-6840-3p]
[1]
  percent viability: 117%
[2]
  5+ nucleoli phenotype percent effect: 16.2%
[3]
  one-nucleolus phenotype percent effect: -16.9%

## GCCCCGGCGCGGGCGGGUUCUGG [hsa-miR-4707-5p]
[1]
  percent viability: 116%
[2]
  5+ nucleoli phenotype percent effect: 42.2%
[3]
  one-nucleolus phenotype percent effect: -25%

## GCCCCGGGCAGUGUGAUCAUC [hsa-miR-5587-3p]
[1]
  percent viability: 108%
[2]
  5+ nucleoli phenotype percent effect: 18.8%
[3]
  one-nucleolus phenotype percent effect: -20.5%

## GCCCCUGGGCCUAUCCUAGAA [hsa-miR-331-3p]
[1]
  percent viability: 61.2%
[2]
  5+ nucleoli phenotype percent effect: 8.19%
[3]
  one-nucleolus phenotype percent effect: 6.3%

## GCCCGAGAGGAUCCGUCCCUGC [hsa-miR-4740-3p]
[1]
  percent viability: 65.9%
[2]
  5+ nucleoli phenotype percent effect: 17.8%
[3]
  one-nucleolus phenotype percent effect: -18.2%

## GCCCGCGUGUGGAGCCAGGUGU [hsa-miR-1471]
[1]
  percent viability: 97.1%
[2]
  5+ nucleoli phenotype percent effect: 49.2%
[3]
  one-nucleolus phenotype percent effect: -18.2%

## GCCCUCCGCCCGUGCACCCCG [hsa-miR-1470]
[1]
  percent viability: 113%
[2]
  5+ nucleoli phenotype percent effect: 45.2%
[3]
  one-nucleolus phenotype percent effect: -19.6%

## GCCCUCUGUCACCUUGCAGACG [hsa-miR-2276-5p]
[1]
  percent viability: 103%
[2]
  5+ nucleoli phenotype percent effect: 60.2%
[3]
  one-nucleolus phenotype percent effect: -20.8%

## GCCCUGAACGAGGGGUCUGGAG [hsa-miR-345-3p]
[1]
  percent viability: 61%
[2]
  5+ nucleoli phenotype percent effect: 29.8%
[3]
  one-nucleolus phenotype percent effect: -13.5%

## GCCCUGACCUGUCCUGUUCUG [hsa-miR-4732-3p]
[1]
  percent viability: 64.3%
[2]
  5+ nucleoli phenotype percent effect: 21.5%
[3]
  one-nucleolus phenotype percent effect: -20.3%

## GCCGGACAAGAGGGAGG [hsa-miR-4442]
[1]
  percent viability: 96%
[2]
  5+ nucleoli phenotype percent effect: 25.4%
[3]
  one-nucleolus phenotype percent effect: -19.9%

## GCCGGGGCUUUGGGUGAGGG [hsa-miR-6784-5p]
[1]
  percent viability: 171%
[2]
  5+ nucleoli phenotype percent effect: 49%
[3]
  one-nucleolus phenotype percent effect: -23.3%

## GCCUAUCACAUAUCUGCCUGU [hsa-miR-3927-5p]
[1]
  percent viability: 73.9%
[2]
  5+ nucleoli phenotype percent effect: 67.2%
[3]
  one-nucleolus phenotype percent effect: -27.5%

## GCCUCUCUCGGAGUCGCUCGGA [hsa-miR-3183]
[1]
  percent viability: 77.6%
[2]
  5+ nucleoli phenotype percent effect: 40%
[3]
  one-nucleolus phenotype percent effect: -23.3%

## GCCUGCUGGGGUGGAACCUGGU [hsa-miR-370]
[1]
  percent viability: 45.3%
[2]
  5+ nucleoli phenotype percent effect: -25.5%
[3]
  one-nucleolus phenotype percent effect: 12.5%

## GCCUGGAGCUACUCCACCAUCUC [hsa-miR-4254]
[1]
  percent viability: 26.1%
[2]
  5+ nucleoli phenotype percent effect: 11.1%
[3]
  one-nucleolus phenotype percent effect: 7%

## GCGACCCACUCUUGGUUUCCA [hsa-miR-551a]
[1]
  percent viability: 81.6%
[2]
  5+ nucleoli phenotype percent effect: 39.1%
[3]
  one-nucleolus phenotype percent effect: -18%

## GCGACCCAUACUUGGUUUCAG [hsa-miR-551b-3p]
[1]
  percent viability: 111%
[2]
  5+ nucleoli phenotype percent effect: 23.7%
[3]
  one-nucleolus phenotype percent effect: -14.5%

## GCGACUCUGAAAACUAGAAGGU [hsa-miR-4431]
[1]
  percent viability: 82.9%
[2]
  5+ nucleoli phenotype percent effect: 34.2%
[3]
  one-nucleolus phenotype percent effect: -23.7%

## GCGAGGACCCCUCGGGGUCUGAC [hsa-miR-611]
[1]
  percent viability: 121%
[2]
  5+ nucleoli phenotype percent effect: 45.7%
[3]
  one-nucleolus phenotype percent effect: -31.1%

## GCGCUGACCCGCCUUCUCCGCA [hsa-miR-6825-3p]
[1]
  percent viability: 108%
[2]
  5+ nucleoli phenotype percent effect: 45.7%
[3]
  one-nucleolus phenotype percent effect: -15%

## GCGGAAGGCGGAGCGGCGGA [hsa-miR-6125]
[1]
  percent viability: 155%
[2]
  5+ nucleoli phenotype percent effect: 25.5%
[3]
  one-nucleolus phenotype percent effect: -24.1%

## GCGGAGAGAGAAUGGGGAGC [hsa-miR-5739]
[1]
  percent viability: 110%
[2]
  5+ nucleoli phenotype percent effect: 53.5%
[3]
  one-nucleolus phenotype percent effect: -16.4%

## GCGGGGCUGGGCGCGCG [hsa-miR-4508]
[1]
  percent viability: 90.5%
[2]
  5+ nucleoli phenotype percent effect: 29.5%
[3]
  one-nucleolus phenotype percent effect: -26.4%

## GCGGGGGUGGCGGCGGCAUCCC [hsa-miR-4787-5p]
[1]
  percent viability: 86.7%
[2]
  5+ nucleoli phenotype percent effect: 25.2%
[3]
  one-nucleolus phenotype percent effect: -21.5%

## GCGGUGAUCCCGAUGGUGUGAGC [hsa-miR-598-5p]
[1]
  percent viability: 93.1%
[2]
  5+ nucleoli phenotype percent effect: 32.8%
[3]
  one-nucleolus phenotype percent effect: -24%

## GCGGUGGGGCCGGAGGGGCGU [hsa-miR-6786-5p]
[1]
  percent viability: 96.7%
[2]
  5+ nucleoli phenotype percent effect: 31.9%
[3]
  one-nucleolus phenotype percent effect: -24.9%

## GCUAAGGAAGUCCUGUGCUCAG [hsa-miR-4521]
[1]
  percent viability: 83.7%
[2]
  5+ nucleoli phenotype percent effect: 34.9%
[3]
  one-nucleolus phenotype percent effect: -19.3%

## GCUACUUCACAACACCAGGGCC [hsa-miR-138-1-3p]
[1]
  percent viability: 112%
[2]
  5+ nucleoli phenotype percent effect: 30.5%
[3]
  one-nucleolus phenotype percent effect: -15.7%

## GCUAGUCCUGACUCAGCCAGU [hsa-miR-554]
[1]
  percent viability: 67.7%
[2]
  5+ nucleoli phenotype percent effect: 10.2%
[3]
  one-nucleolus phenotype percent effect: -12.9%

## GCUAUUUCACGACACCAGGGUU [hsa-miR-138-2-3p]
[1]
  percent viability: 43.1%
[2]
  5+ nucleoli phenotype percent effect: -22.8%
[3]
  one-nucleolus phenotype percent effect: 4.26%

## GCUCAGGGAUGAUAACUGUGCUGAGA [hsa-miR-4518]
[1]
  percent viability: 55.6%
[2]
  5+ nucleoli phenotype percent effect: 31.9%
[3]
  one-nucleolus phenotype percent effect: -10.2%

## GCUCAUCCCCAUCUCCUUUCAG [hsa-miR-6870-3p]
[1]
  percent viability: 115%
[2]
  5+ nucleoli phenotype percent effect: 36.6%
[3]
  one-nucleolus phenotype percent effect: -31.1%

## GCUCCCUCUAGGGUCGCUCGGA [hsa-miR-4469]
[1]
  percent viability: 67.3%
[2]
  5+ nucleoli phenotype percent effect: 66%
[3]
  one-nucleolus phenotype percent effect: -24.8%

## GCUCGGACUGAGCAGGUGGG [hsa-miR-3917]
[1]
  percent viability: 57.6%
[2]
  5+ nucleoli phenotype percent effect: 32.5%
[3]
  one-nucleolus phenotype percent effect: -20.1%

## GCUCUGACGAGGUUGCACUACU [hsa-miR-301b-5p]
[1]
  percent viability: 60.8%
[2]
  5+ nucleoli phenotype percent effect: 15.2%
[3]
  one-nucleolus phenotype percent effect: -22.6%

## GCUCUGACUUUAUUGCACUACU [hsa-miR-301a-5p]
[1]
  percent viability: 68.8%
[2]
  5+ nucleoli phenotype percent effect: 59.9%
[3]
  one-nucleolus phenotype percent effect: -23.6%
